This note sets out measurements from article PMC8786652 (Cell reports, 2022).

The target of assay [1] is SARS-CoV-2 S1 domain C-His tag protein, from HEK293 cells (SARS-CoV-2, Wuhan-Hu-1 (strain not …, UniProt P0DTC2)). The assay can be described thus: SPR. Background: In SPR one partner is held on a chip, and binding of the other changes the refractive index at the surface.
The target of assay [2] is SARS-CoV-2 Spike WT (Wuhan-Hu-1 reference strain) (SARS-CoV-2, Wuhan-Hu-1, UniProt P0DTC2). The assay can be described thus: flow cytometry on cells.
Assay [3] addresses SARS-CoV-2 Spike on CEM.NKr-Spike cells (SARS-CoV-2, Wuhan-Hu-1 (assumed for the …, UniProt P0DTC2)). The assay can be described thus: flow cytometry on cells. For orientation: In flow cytometry, cells or beads pass a laser one at a time.

B1: CV3-13 (hIgG1) (antibody, V domains shown)
VH: QVQLQQSGPGLVKPSQTLSLTCTVAGGSISSGTYYWSWIRQPAGKGLEWIGRIYTSGSANYNPSLKSRVTISVDTSKNQFSLRLSSVTAEDTAVYYCAREYSSSYYYFYYMDVWGKGTTVTVSS
VL: AIRMTQSPSSLSASVGDRVTITCQASQDISNYLNWYQQKPGKAPKLLIYVASNLETGVPSRFSGSGFGTDFTFTISSLQPEDIATYYCQQFDNLPYTFGQGTKLEIK
With B1, the binding result in assay [1], in assay [2] and in assay [3] was “binds” throughout.

B2: CV3-13 […] (hIgG1) (antibody, V domains shown)
VH: QVQLQQSGPGLVKPSQTLSLTCTVAGGSISSGTYYWSWIRQPAGKGLEWIGRIYTSGSANYNPSLKSRVTISVDTSKNQFSLRLSSVTAEDTAVYYCAREYSSSYYYFYYMDVWGKGTTVTVSS
VL: AIRMTQSPSSLSASVGDRVTITCQASQDISNYLNWYQQKPGKAPKLLIYVASNLETGVPSRFSGSGFGTDFTFTISSLQPEDIATYYCQQFDNLPYTFGQGTKLEIK
On to B2, for which the binding result in assay [2] and in assay [3] was “binds” each time.

B3: CV3-13 LALA (hIgG1) (antibody, V domains shown)
VH: QVQLQQSGPGLVKPSQTLSLTCTVAGGSISSGTYYWSWIRQPAGKGLEWIGRIYTSGSANYNPSLKSRVTISVDTSKNQFSLRLSSVTAEDTAVYYCAREYSSSYYYFYYMDVWGKGTTVTVSS
VL: AIRMTQSPSSLSASVGDRVTITCQASQDISNYLNWYQQKPGKAPKLLIYVASNLETGVPSRFSGSGFGTDFTFTISSLQPEDIATYYCQQFDNLPYTFGQGTKLEIK
B3: the binding result in assay [2] and in assay [3] was “binds” each time.
